Results on 3 molecules are retold here after patent US20250075002A1 (BEIGENE SWITZERLAND, published 2025).

Test [1] addresses T1, human CD16A-His6 (V158) (human, UniProt P08637 17-208).
T1 construct: Bought (Sino Biologics) ECD fragment; also called CD16A 158V; human CD16A (V158); not shown: six-histidine tag (His6)
The test is described as follows: SPR; VHH-Fc captured on anti-human Fc surface.

Test [2] has as its target T2, human CD16A-His6 (F158) (human, UniProt P08637 17-208).
T2 construct: Bought ECD fragment; also called human CD16A (F158); not shown: six-histidine tag (His6)
The test is described as follows: SPR; VHH-Fc captured on anti-human Fc surface.

Test [3] concerns the target T3, human CD16A (F158) on NK92mi cells (human, UniProt P08637 17-254).
T3 construct: NK92mi cells co-transduced with CD16A (F158) and FcRgamma cDNAs; also called NK92mi/CD16A F158
Description: flow cytometry, biotinylated VHH-Fc on NK92mi/CD16A 158F cells, with 10 mg/ml human IgG1 CB6 as competitor.

Test [4] deals with T4, human CD16B (NA1) on NK92mi cells (human, UniProt O75015 17-200).
T4 construct: also called NK92mi/CD16B (NA1); NK92mi/CD16B NA1
T4 chain: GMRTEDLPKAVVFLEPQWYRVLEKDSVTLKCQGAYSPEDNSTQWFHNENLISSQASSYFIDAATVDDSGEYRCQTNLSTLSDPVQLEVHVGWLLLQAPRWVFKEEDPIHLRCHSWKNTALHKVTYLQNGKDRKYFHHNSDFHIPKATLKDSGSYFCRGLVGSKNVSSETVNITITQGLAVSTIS
Description: flow cytometry on live NK92mi/CD16B NA1 cells, 300 nM VHH-Fc.

In test [5] the target is T1, human CD16A-His6 (V158). The test is described as follows: SPR; VHH-Fc captured on anti-human Fc surface; row head prints 'KD (nM)', koff/kon shows M.
Test [6] deals with T2, human CD16A-His6 (F158). The description is as above.
Test [7] addresses T5, human CD16B-His6 (NA2) (human, UniProt O75015 17-200).
T5 construct: Bought ECD fragment; also called CD16B NA2; human CD16B (NA2); not shown: six-histidine tag (His6)
T5 chain: T4 chain with R20S, N49S, D66N, V90I
Description: SPR; VHH-Fc captured on anti-human Fc surface; row head prints 'KD (nM)', taken as M like the rest of the table.

The target in test [8] is T6, human CD16B-His6 (NA1) (human, UniProt O75015 17-200).
T6 construct: Bought ECD fragment; also called CD16B NA1; human CD16B (NA1); not shown: six-histidine tag (His6)
T6 chain: T4 chain
The test is described as above.

In test [9] the target is T7, cyno CD16-His6 (cyno, UniProt Q8SPW2 17-208).
T7 construct: Bought ECD fragment; not shown: six-histidine tag (His6)
T7 sequence (Q8SPW2 17-208): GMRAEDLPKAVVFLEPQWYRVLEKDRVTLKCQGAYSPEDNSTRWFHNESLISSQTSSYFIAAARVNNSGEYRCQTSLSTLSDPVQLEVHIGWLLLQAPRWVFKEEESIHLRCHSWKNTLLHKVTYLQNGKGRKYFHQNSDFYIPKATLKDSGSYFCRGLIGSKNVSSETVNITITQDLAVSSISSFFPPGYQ
Description: SPR; VHH-Fc captured on anti-human Fc surface; column head prints 'KD (nM)', koff/kon shows M.

The target of test [10] is T3, human CD16A (F158) on NK92mi cells. Description: flow cytometry on NK92mi/CD16A 158F cells.
Test [11] addresses T7, cyno CD16-His6. Description: SPR; VHH-Fc captured on anti-human Fc surface.
In test [12] the target is T8, human CD16B (NA2) on NK92mi cells (human, UniProt O75015 17-200).
T8 construct: also called NK92mi/CD16B (NA2); NK92mi/CD16B NA2
T8 chain: T4 chain with R20S, N49S, D66N, V90I
The test is described as follows: flow cytometry on live NK92mi/CD16B NA2 cells, 300 nM VHH-Fc.

The target in test [13] is T3, human CD16A (F158) on NK92mi cells. The test is described as follows: flow cytometry, biotinylated VHH-Fc on NK92mi/CD16A 158F cells, without human IgG1 (CB6).
For test [14], the target named is T5, human CD16B-His6 (NA2). The test is described as follows: SPR; VHH-Fc captured on anti-human Fc surface; row head prints 'KD (nM)', taken as M like the rest of the table.
The target in test [15] is T6, human CD16B-His6 (NA1). The description is as above.
Test [16] has as its target T1, human CD16A-His6 (V158). The test is described as follows: SPR; VHH-Fc captured on anti-human Fc surface. This is another data set of the same source.
The target in test [17] is T2, human CD16A-His6 (F158). Description: SPR; VHH-Fc captured on anti-human Fc surface. The source holds these as a separate data set.
The target in test [18] is T3, human CD16A (F158) on NK92mi cells. Description: flow cytometry on live NK92mi/CD16A 158F cells.
Test [19] has as its target T1, human CD16A-His6 (V158). The test is described as follows: SPR; VHH-Fc captured on anti-human Fc surface; row head prints 'KD (nM)', text gives 0.08 nM, so M.
For test [20], the target named is T2, human CD16A-His6 (F158). Described as above.

Numbering of substitutions follows the chain as printed. Like-named read-outs stand apart in the source and are kept apart here.

B1: BG525P (VHH-Fc) (VHH)
chain: EVQLVESGGGLVQPGGSLRLSCAASGRTFGSYAVGWFRQAPGRGREFVAAIRRSDGTTDYVDSVKGRFTISRDNAKNTVYLQMNSLKPEDTAVYYCAASDSDYEPLGDYWGQGTLVTVSSEPKSSDKTHTCPPCPAPPAAGPSVFLFPPKPKDTLMISRTPEVTCVVVDVSHEDPEVKFNWYVDGVEVHNAKTKPREEQYNSTYRVVSVLTVLHQDWLNGKEYKCKVSNKALAAPIEKTISKAKGQPREPQVYTLPPSREEMTKNQVSLTCLVKGFYPSDIAVEWESNGQPENNYKTTPPVLDSDGSFFLYSKLTVDKSRWQQGNVFSCSVMHEALHNHYTQKSLSLSPGK
notes: Humanized BG523P variant, VHH-Fc
As for B1, the koff in test [1] was found to be 0.000103 s⁻¹; in [2], 0.00012 s⁻¹; in test [11] it was 0.000112 s⁻¹. Besides, the kon in test [1] was found to be 255000 M⁻¹ s⁻¹; in [2], 210000 M⁻¹ s⁻¹; in test [11], 267000 M⁻¹ s⁻¹. Also, the EC50 in test [3] is 6.83 nM; in test [10], 10.3 nM; in test [13], 1.65 nM. Besides, the “EMAX (MFI)” value in test [3] worked out at 21900 MFI; in test [10], 9710 MFI; in [13], 23300 MFI. In addition, the results for the “Binding signal at 300 nM (MFI)” value in test [4] and in [12] were 733 MFI and 75 MFI, respectively. Besides, the Kd in [5] came out at 0.404 nM; in [6], 0.575 nM; in test [7], 5780 nM; in [8], 2310 nM; in [9], 0.418 nM.

B2: BG526P (VHH-Fc) (VHH)
chain: B1 chain with R43K, G56A
notes: as for B1
On to B2, for which the koff in test [1] is 0.000133 s⁻¹; in test [2] it was 0.000148 s⁻¹; in [11] it was 0.000147 s⁻¹. Also, the results for the kon in [1], in test [2] and in [11] were 289000 M⁻¹ s⁻¹, 230000 M⁻¹ s⁻¹ and 301000 M⁻¹ s⁻¹, respectively. Further, the EC50 in test [3] was 4.95 nM; in [10], 9.1 nM; in test [13], 1.52 nM. Besides, the entries for the “EMAX (MFI)” value in test [3], in test [10] and in [13] were 19600 MFI, 9200 MFI and 21600 MFI, respectively. Also, the “Binding signal at 300 nM (MFI)” value turned out to be 473 MFI in test [4] and 52 MFI in [12]. In addition, the Kd in test [5] is 0.425 nM; in test [6], 0.64 nM; in [7], 7640 nM; in [8] it was 2740 nM; in test [9], 0.49 nM.

B3: BG524P (VHH-Fc) (VHH)
chain: B1 chain with R43K, F47W, G56A, T78S, K87R
notes: Humanized BG523P variant, VHH fused to the N-terminus of the human IgG1 variant Fc
Regarding B3, the Kd in test [14] is 1050 nM; in test [15], 942 nM; in test [19], 0.0816 nM; in test [20], 0.0825 nM. The koff in test [16] came out at 0.00011 s⁻¹; in test [17], 0.000119 s⁻¹. Also, the kon in test [16] amounted to 1.35e+06 M⁻¹ s⁻¹; in test [17] it was 1.44e+06 M⁻¹ s⁻¹. Moreover, the EC50 in [18] worked out at 4.42 nM.
